Results taken from PMC3836677 (The Biochemical journal, 2012).

How the values were obtained:
SEC = target: the molecule itself; experiment: SEC
purified protein [1] = substrate: CCCCCC(=O)SCCNC(=O)CCNC(=O)[C@H](O)C(C)(C)COP(=O)(O)OP(=O)(O)OC[C@H]1O[C@@H](n2cnc3c(N)ncnc32)[C@H](O)[C@@H]1OP(=O)(O)O; experiment: purified protein; settings: 50 mM HEPES-K pH 8.0, 2 mM EDTA, 0.3 mM DTNB, 37 °C
purified protein [2] = substrate: CCCCCCCCCCCCCCCC(=O)SCCNC(=O)CCNC(=O)[C@H](O)C(C)(C)COP(=O)(O)OP(=O)(O)OC[C@H]1O[C@@H](n2cnc3c(N)ncnc32)[C@H](O)[C@@H]1OP(=O)(O)O; experiment: purified protein; settings: 50 mM HEPES-K pH 8.0, 2 mM EDTA, 0.3 mM DTNB, 37 °C
purified protein [3] = substrate: CC(O)CC(=O)SCCNC(=O)CCNC(=O)[C@H](O)C(C)(C)COP(=O)(O)OP(=O)(O)OC[C@H]1O[C@@H](n2cnc3c(N)ncnc32)[C@H](O)[C@@H]1OP(=O)(O)O; experiment: purified protein; settings: 50 mM HEPES-K pH 8.0, 2 mM EDTA, 0.3 mM DTNB, 37 °C
purified protein [4] = substrate: CC(C(=O)O)C(=O)SCCNC(=O)CCNC(=O)[C@H](O)C(C)(C)COP(=O)(O)OP(=O)(O)OC[C@H]1O[C@@H](n2cnc3c(N)ncnc32)[C@H](O)[C@@H]1OP(=O)(O)O; experiment: purified protein; settings: 50 mM HEPES-K pH 8.0, 2 mM EDTA, 0.3 mM DTNB, 37 °C
purified protein [5] = substrate: CC(C)(COP(=O)(O)OP(=O)(O)OC[C@H]1O[C@@H](n2cnc3c(N)ncnc32)[C@H](O)[C@@H]1OP(=O)(O)O)[C@@H](O)C(=O)NCCC(=O)NCCSC(=O)CCC(=O)O; experiment: purified protein; settings: 50 mM HEPES-K pH 8.0, 2 mM EDTA, 0.3 mM DTNB, 37 °C
purified protein [6] = substrate: CCCCCCCCCCCCCCCCCC(=O)SCCNC(=O)CCNC(=O)[C@H](O)C(C)(C)COP(=O)(O)OP(=O)(O)OC[C@H]1O[C@@H](n2cnc3c(N)ncnc32)[C@H](O)[C@@H]1OP(=O)(O)O; experiment: purified protein; settings: 50 mM HEPES-K pH 8.0, 2 mM EDTA, 0.3 mM DTNB, 37 °C
purified protein [7] = substrate: CC(C)(COP(=O)(O)OP(=O)(O)OC[C@H]1O[C@@H](n2cnc3c(N)ncnc32)[C@H](O)[C@@H]1OP(=O)(O)O)[C@@H](O)C(=O)NCCC(=O)NCCSC(=O)CCCC(=O)O; experiment: purified protein; settings: 50 mM HEPES-K pH 8.0, 2 mM EDTA, 0.3 mM DTNB, 37 °C
purified protein [8] = substrate: CC(=O)SCCNC(=O)CCNC(=O)[C@H](O)C(C)(C)COP(=O)(O)OP(=O)(O)OC[C@H]1O[C@@H](n2cnc3c(N)ncnc32)[C@H](O)[C@@H]1OP(=O)(O)O; experiment: purified protein; settings: 50 mM HEPES-K pH 8.0, 2 mM EDTA, 0.3 mM DTNB, 37 °C
purified protein [9] = substrate: CC(C)(COP(=O)(O)OP(=O)(O)OC[C@H]1O[C@@H](n2cnc3c(N)ncnc32)[C@H](O)[C@@H]1OP(=O)(O)O)[C@@H](O)C(=O)NCCC(=O)NCCSC(=O)C[C@@](C)(O)CC(=O)O; experiment: purified protein; settings: 50 mM HEPES-K pH 8.0, 2 mM EDTA, 0.3 mM DTNB, 37 °C
purified protein [10] = substrate: CCCCCCCC(=O)SCCNC(=O)CCNC(=O)[C@H](O)C(C)(C)COP(=O)(O)OP(=O)(O)OC[C@H]1O[C@@H](n2cnc3c(N)ncnc32)[C@H](O)[C@@H]1OP(=O)(O)O; experiment: purified protein; settings: 50 mM HEPES-K pH 8.0, 2 mM EDTA, 0.3 mM DTNB, 37 °C
purified protein [11] = substrate: CC(C)(COP(=O)(O)OP(=O)(O)OC[C@H]1O[C@@H](n2cnc3c(N)ncnc32)[C@H](O)[C@@H]1OP(=O)(O)O)[C@@H](O)C(=O)NCCC(=O)NCCSC(=O)Cc1ccccc1; experiment: purified protein; settings: 50 mM HEPES-K pH 8.0, 2 mM EDTA, 0.3 mM DTNB, 37 °C

B1: PA5026 (natural protein, Pseudomonas aeruginosa)
chain: MPLPTELARHLTEEKIAFVQRSGLRAEVLEPGYVRLRMPGAGNENHIGSMYAGALFTLAELPGGALFLTSFDSARFYPIVKEMTLRFRRPAKGDIRVEARLDAERIRQLETEAGERGKAEYSLELQLTDEQGEVVAESAALYQLRSHARP
SEC
  stoichiometry N: 2

B2: PA2801 (enzyme, Pseudomonas aeruginosa)
chain: MADRQLLHTAHIPVRWGDMDSYGHVNNTLYFQYLEEARVAWFETLGIDLEGAAEGPVVLQSLHTYLKPVVHPATVVVELYAGRLGTSSLVLEHRLHTLEDPQGTYGEGHCKLVWVRHAENRSTPVPDSIRAAIA
SEC
  stoichiometry N: 4

B3: PA5202 (enzyme, Pseudomonas aeruginosa, UniProt Q9HTY7 1-129, looked up)
chain: MSEMPAREQMISAYSELVGLDPVSLGDGVAEVRLPMAAHLRNRGGVMHGGALFSLMDVTMGLACSSSHGFDRQSVTLECKINYIRAVADGEVRCVARVLHAGRRSLVVEAEVRQGDKLVAKGQGTFAQL
Purified protein [1]
  Km: 200 ± 20 µM
Purified protein [2]
  Km: 20 ± 10 µM
  kcat: 0.3 ± 0.03 s⁻¹
  kcat/Km: 13000 M⁻¹ s⁻¹
Purified protein [3]
  Km: 500 ± 50 µM
  kcat: 2 ± 0.1 s⁻¹
  kcat/Km: 4000 M⁻¹ s⁻¹
Purified protein [4]
  Km: 400 ± 40 µM
  kcat: 0.3 ± 0.01 s⁻¹
  kcat/Km: 800 M⁻¹ s⁻¹
Purified protein [5]
  Km: 100 ± 20 µM
  kcat: 0.8 ± 0.03 s⁻¹
  kcat/Km: 7000 M⁻¹ s⁻¹
Purified protein [6]
  Km: 5 ± 1 µM
  kcat: 0.04 ± 0.003 s⁻¹
  kcat/Km: 8000 M⁻¹ s⁻¹
Purified protein [7]
  Km: 700 ± 100 µM
  kcat: 26.8 ± 0.9 s⁻¹
  kcat/Km: 40000 M⁻¹ s⁻¹
Purified protein [8]
  Km: 500 ± 100 µM
  kcat: 0.2 ± 0.03 s⁻¹
  kcat/Km: 400 M⁻¹ s⁻¹
Purified protein [9]
  Km: 100 ± 10 µM
Purified protein [10]
  Km: 400 ± 60 µM
  kcat: 2.4 ± 0.2 s⁻¹
  kcat/Km: 7000 M⁻¹ s⁻¹
Purified protein [11]
  Km: 1100 ± 10 µM
  kcat: 0.1 ± 0.01 s⁻¹
  kcat/Km: 100 M⁻¹ s⁻¹
SEC
  stoichiometry N: 4

B4: PA5185 (enzyme, Pseudomonas aeruginosa)
chain: MATAPRPLREQYLHFQPISTRWHDNDIYGHVNNVTYYAFFDTAVNTYLIERGGLDIQGGEVIGLVVSSSCDYFAPVAFPQRIEMGLRVARLGNSSVQYELALFLEGQREACAAGRFVHVFVERRSSRPVAIPQELRDALAALQSSAQ
SEC
  stoichiometry N: 4

B5: PA1835 (natural protein, Pseudomonas aeruginosa)
chain: MSQMMQMYQQVGPAQFSAMIGQFAPYFASIAPQFVELRPGYAEVTFPKRREVLNHIGTVHAIALCNAAELAAGTMTDASIPAGHRWIPRGMTVEYLAKATGDVRAVADGSQIDWQATGNLVVPVVAYVDDKPVFRAEITMYVSQA
SEC
  stoichiometry N: 2
